Among the data in PMC5826802 are Km values, retold here.

Substrate in this data set: NC(=O)c1ccc[n+]([C@@H]2O[C@H](COP(=O)([O-])OP(=O)(O)OC[C@H]3O[C@@H](n4cnc5c(N)ncnc54)[C@H](O)[C@@H]3O)[C@@H](O)[C@H]2O)c1
Briefly: Enzyme kinetics of PARP15-catalyzed automodification by MLISA. The format is biochemical, human. Conditions: other: 500 nM PARP15, NAD+ 5-400 μM, Michaelis-Menten fit; pH 7.4.

B1: PARP15 (Homo sapiens) (protein)
chain: NLPEHWTDMNHQLFCMVQLEPGQSEYNTIKDKFTRTCSSYAIEKIERIQNAFLWQSYQVKKRQMDIKNDHKNNERLLFHGTDADSVPYVNQHGFNRSCAGKNAVSYGKGTYFAVDASYSAKDTYSKPDSNGRKHMYVVRVLTGVFTKGRAGLVTPPPKNPHNPTDLFDSVTNNTRSPKLFVVFFDNQAYPEYLITFTA
Regarding B1, the Km (usually the substrate concentration at which the rate is half of its maximum) came out at 4.5 ± 2.9 µM.
